# Results: the DeepSol protein solubility set
# Assay: soluble on expression in E. coli; label from the status in PepcDB or PDB records
row,Sequence,soluble on expression in E. coli
1,MIKLENEVLLVEMKTAGAELTRIFHKDTGLEYLWNADSKFWGRHSPVLFPTVGRLVEDTYLVDGKPYHLGQHGFARDRDFQVVEQTEKSVRFELDADEDSLAVYPYKFKLSIIYTIEKNTVAVSYEVENTDNKRIYFSIGAHPAFNLPLTDGTTFEDYYLDFGTEENLETLCLEGPYRSGEIKKVVDEAARYLPLNYDLFKNDALIFEALKQKEMTIKSDKTPHFVKVSFPEFPFVGVWTAKAGTPFLCIEPWYGIADGAGESVELRDKAGIEHLEPEAVFASEYEITVGLEHHHHHH,soluble
2,MIKQNSFVPYPEAMLPKGFKYPQSYLKLAQSTHAINYDEQYSFPWWFENAESNISEVIDIYFEITGIPNLLPFARNQEWAACFDISDKSGNPKIIVVNLDNTKYYETFENFDTWLKEAENDGW,soluble
3,MIKSYKIRGTSLTVNRSDSYPDACNWTADSFGMLFYDPEYDLSTESLSITLDAGNDWVPEGGLVYESLPVKVTYENPEMMDYGTDWFNQGYSALGWNGEEYAYLGTDRGIVNILLEEDEKILYPNEEYDLKEGYTLKVTDLASDKACLTLSRNKLPVYSSIISPGKSADLGTHTFLYKKELNGVEVPLFSVYVDSVIQGDELSAVNLKHLLHFSDSPLELNYGKEYGELTIVETYPKLRLENKHVVWSGSDINVTEDIWIGRFEKKTAGNLFVTFYPYMNKVENVRSILPSVSSWSIPAMSIEEYLIGVLEHHHHHH,not soluble
4,MIKTLKEHTKIVRSVTFSPNGKYLAVGDICGTVEIWRVL,soluble
5,MIKVKEDKNEQVKKRWGDKPYYSLNYFLREKFQDKVFKISLDAGFSCPNRDGTISRGGCMFCSERGSGDFAGNRKFSISTQFEDIKDMMKNKWKNGKYIAYFQAYTNTYAPIKVLREKYSEAISKDGVVGLAIATRPDCLSEEVLDLIQEFSKRIYVWVELGLQTANDKVAKVINRGYDTIVFDDAVKKLRERKIDVVVHTIFGLPGEKPKDMLSTIDYVAHKEVQGIKIHLLHLMRGTPLVELYNNGQLTFMSEEEYVETVCRAITMLPQNIV,not soluble
6,MILHAQAKHGKLGLPWLVFLHGFSGDCHEWQEVGEAFADYSRLYVDLLGHGGSAAISVDGFDDVTDLLRKTLVSYNILDFWLVGYSLGGRVAMMAACQGLAGLCGVIVEGGHPGLQNAEQRAERQRSDRQWAQRFRTEPLTAVFADWYQQPVFASLNDDQRRELVALRSNNNGATLAAMLEATSLAVQPDLRANLSARTFAFYYLCGERDSKFRALAAELAADCHVIPRAGHNAHRENPAGVIASLAQILRF,not soluble
7,MILLPSIRLPETAMNTDSPINRVEQVQVDDLACWRIHTAHGEALIAQQGAQLLSYQPHEQPPLVWLSDEAGYRRGQSVRGGVPVCWPWFGPLERNPQEVRGQVEDGLKAPAHGLVRAVDWKIDDIAEEDGDLCVSFRLDAPDGLPGWPHPAALRMLFRFGERLTLRLTSENLGSKPLVLSQALHTYFAVSDSREIAIEGLEGARYIETLENWEERTQHGAVRVKGELDRIYLGLERDLLIKDPRWERSIHLHALDSRSAVVWNPWVDKSRRLSQFADDAWQQMLCIETGRVWDDLMVVAPGRSESFGVQIWSEPLKRP,soluble
8,MILMIDNYDSFTFNLVQFLGELGQELVVKRNDEVTISDIENMKPDFLMISPGPCSPNEAGISMDVIRYFAGKIPIFGVCLGHQSIAQVFGGEVVRAERLMHGKTSPMHHDGKTIFSDIPNPFTATRYHSLIVKKETLPDCLEVTSWTEEGEIMALRHTTLPIEGVQFHPESIMTSHGKELLQNFIRKYSPSVTSC,not soluble
9,MILRIIYTLLNYLSQPVLLLMMWRKTARHTKQTSRLWERYGIYRQLTAPRPQGIVIHAASVGEVIAATPLINAIQTHYPALPITVTTFTQTASERVQAIFANTVSHIYLPFDLPFAVNRFIKFTQPRLFIVIETELWPNLITQTYRQHIPFIIANGRLSARSLKHYQWFNPALQKILNQISMIIAQDQISAERYAQLGFNSQQLTTAGNLKFDLEISEQLRQTIQKTKQTLTLGNRPVWIAGSTHEGEDEIILATHQQLLSEWPDLLLILAPRHPNRFKNVENLLIKSELCYVKRSQQCPLTDHTQVLLADTLGEMMILYGLANIAFVGGSLIKHGGHNPLEPIAFGLPIISGIHTFNFLEIFNKLKAIHGVIEVTNDPADLAQAVNLLLKDPKKYTAIAQAGLSMLKANQGSLQRHLQLLAPYLEKLEHHHHHH,not soluble
10,MIMNHMPKKIVIIGAGAGGGISLSQLRRALSNEDVEITIIDQTGRTDFQPSYVFLALGEKKPEEISRDISQLNDSRVRAVKDTVISVDAANRVVKTSGGSYQYDYLIMSPGPSIDPSSLKGHEATHSVWTMEDSLRLRDAVKNFKGGNVLISVSTQWYKCPPVPWEMALLLDDYFRRKNIRDKVKITVAHPVSRPMEMYGPGLSEPFSKMLDDRNIEGIYGRRVSSVDAEKKRAIMDNGETVGFDLSIVAPPHLPPDFIKNNDDLRSPRGWAATNIRDFRNPKYEDVFAIGDVIAPTIQIGMAGVLAHFQADTVSSAIAEEIAGYPFMEYNKVAVCIIATGGSGVFSYCDLAGKLTDPKVKFPECRMIGNDPLFRFAHDLYEVNFLSSIYGSRLEHHHHHH,not soluble
11,MIMSEMITRQQVTSGETIHVRTDPTACIGSHPNCRMFIDSLTIAGEKLDKNIVAIDGGEDVTKADSATAAASVIRMSITPGSINPTISITLGVLIKSNVRTKIEEKVSSILQASATDMKIKLGNSNKKQEYKTDEAWGIMIDLSNLELYPISAKAFSISIEPTELMGVSKDGMRYHIISIDGLTTSQGSLPVCCAASTDKGVAKIGYIAAA,soluble
12,MINAVGNPQTLLLLGGTSEIGLAICEEYLKKAPMRVILAALPGDPGRDAAVAQLKAAGANAVDVIDFDAVDTESHPKVIDEAWAKSDVDVAIVAFGLLGDAEELWQNQRKAVQIAEVNYTAAVSVGVLVGEKMKAQGFGQIIAMSSAAGERVRRSNFVYGSTKAGLDGFYLGLGEALREFGPRVLVIRPGQVRTRMSADVKEAPLTVNKEDVAKLAVTSAEKGKDLVWAPGAFRYVMMILRHIPRPIFKKLPI,not soluble
13,MINDIKILGVGGSPRKNGNTDVLLDSFLKGAESAGVETKKVLLRDYSIEPCIGCERCRKTGTCTRFHDGMSLLYPEIEAAKGLTLGSPTYNYNVTALMKAFIDRLYPYYNFTNVRPRRYSSKLAGQGRKAIVFSVCEQLEIEEMGFTLGALGMPLEALGYEIVEKFPVTGYFDRGAVSRDEELLRKTFEAGKKMAEALHLEHHHHHH,not soluble
14,MINIDPPSGDCPASGGSSTHNIVSESESRLAFKVKSSNNESYRVRPVYGFVDAKGKAKLDVNRLAGPPKEDKLVIQYARVPADETDPKAPFAAGAQQGEVVVKMVAT,not soluble
15,MINKDTQLCMSLSGRPSNFGTTFHNYLYDKLGLNFIYKAFTTQDIEHAIKGVRALGIRGCAVSMPFKETCMPFLDEIHPSAQAIESVNTIVNDNGFLRAYNTDYIAIVKLIEKYHLNKNAKVIVHGSGGMAKAVVAAFKNSGFEKLKIYARNVKTGQYLAALYGYAYINSLENQQADILVNVTSIGMKGGKEEMDLAFPKAFIDNASVAFDVVAMPVETPFIRYAQARGKQTISGAAVIVLQAVEQFELYTHQRPSDELIAEAAAFARTKFLEHHHHHH,soluble
16,MINKLKENIGSVFVGKENVIDLLLVSLLADGHVLLENVPGTGKTLLAKTISKSIGGSFSRVQFTPDVLPSDVTGIEYFNPKTSEFELRIGPVMTNILLADEINRAMPRTQSSLLEAMEERQVTLEKQSTPLPKPFFVIATQNPIESQGTFPLPDAQLDRFLMTISIGHPTPKDELQMMRRFRNDLPLESVTSVISLEDILEAQKRVKEIFVSEPLEHYIIKLAHATRNHDYIANGVSPRATLALVRAVQALAFLRGREYCTPEDIQLLVPSVWNHRIVLSMEGALRTTKNDIMQSILKEVDVPVEIEQA,not soluble
17,MINNVLVWKQPNISWIHPINIDNSINANNFNFDYLDTLNKLRSSNLKILELRDIADKISDGPFGSQLKVEEYKEQGFPVYRVKNIIDTQILDDDIVYIDAKKQQQLKRSEVLPGDVLITKAGRIGSAAVVPSKFGNGNITSHLVLVRLKKTINNYYLVAYLECKYGKVITGRESYKSTRPELTKNEIGNVIIPIPSPEIQKYIGDKVRKAEELREEAKRLKKEAETFLYEMIQLKPLNDFDKDMFSFVNSNYIDSERLDSEYYKTKYITLEKLLKSKKVTSFKDIIIESKYGASVPADYTMVGIPFIRGNNLTDNEINIDDIVYLNKKLKDEVKDHHVNTGDILITRSGTVGISAVVDEKCDGFSFGSFMIKLRIDMRIWNPYYIAAFLNSFWGKWQIERLQNGAVQQNINLQEIGRIIIPIISKENQDKIEELIKNYINKKRQSKQLIQEAKQDVEDLIEGNFDMSKVKANS,soluble
18,MIPLFNFAIKQFMNQRMKNIRGFMEHPIETQQRVLKNLLQQAALTEWGKTHGYKDIQSNEQFAQQVPVSTYETFYPWIERCLKGEQQILWQSDIDWFSKSSGTTNAKSKFIPVSKESLKDCHYKGGMDLLTLYFDNAPESKLFQGKSLAVGGSCSPNPHRDNSKIGDISAVIMANLPTWAQYARTPSIQTALMNEWEAKIDKLAEECSKENVTNLSGVPTWAVLLLEYMLEKSGKENMLEIWPHFECFFHGAVSFHPYKTAFQKFFPSDKVRYMETYNASEGFFGVQDDLSRDDLLLYLDHGIYYEFIPIDEIDAEFPKTISLEQVQLNEAYALVISTNSGLWRYNVGDVVRFTSITPYRIKITGRTKHYINVFGEELMVENAEMAVSKACEATNAVLANFTAGPIYFNNENKGGHEWIIEFETAPGDKDRFTQLLDQFLKELNSDYEAKRYKDMALLLPTIHFVPEGTFYKWLKLKGKLGGQHKVPRLSNNREYLEDILTKCL,not soluble
19,MIPRVRAPELPQNYPWLNTEQPLSIKQLNGRVVILDFWTYCCINCLHVLPDLKYLEQKYKDSLTVIGVHSAKFDNEQETENIRQAILRYDIEHPVLVDKDFRVWQEYAVRAWPTLMVIDPKGYVIGYVSGEGNRDKLDQLITQVIQEHQGAINFQQLSLTLEKQRQPLITPLAFPGKVLATPSGLFVADSGHHRIVVSDFNGEILHLIGNGKSGLTDGNFQEAQFSAPQGMAFDMENQILYLADTENHALRRVDINQQTVETIAGTGEQSRNIQPHGGVGLETALNSPWDLVNIENSLYIAMAGVHQIWQMDLASGVIKTYAGTGVEACLDASLTESAFAQPSGITNNEQELYIADSEISSIRGVGLVEPQEVRTVCGSGGLFGFGDVDGQGEDVRLQHCLGVEYFQNYLWVADTYNHKIKSVSPHTGNCQTVLGDGLAGLQNGQGKNTRFFEPSGLSAIDSYLYISDTNNHVIRRVDLRTLEVTTMQFNGLCAPDVCIPNNFLEHHHHHH,not soluble
20,MIPSRSARIIAKLQRLHSTTSAASVSSIDVKEVEKFGDLSAEWADELGPFHALHSLNRIRVPWIVDNVRKSDQKAPPRLVDVGSGGGLLSIPLARSGFDVTGIDATKQAVEAANQSLTAKPLQIAGISKRLRFEHTSVEDFCQKPHNKSAYDAVVASEIVEHVADLPGFIGCLAELARPGAPLFITTINRTWLSKLAAIWLAENVLKIVPPGVHDWEKFITPAELTSHLEKAGCRVTAVHGLMFHPVGNHWTWIESTQCNYGILAVKN,not soluble
21,MIRLVIVEPEGSYNLGFISRLAKNFLVDELYIVNPHCDLEEAKKFSAKGLEYLEKAKIVNNFDEAIKDVELKIATSSIADIKGDILRKSIRPWELPRIIEGKKVALIFGRESVGLTREEIAKSDLLLFIPGNPEYPVLNLSHAVGIVLYEIWKSRGENKPVISGEAISLIDKYSRDLVNLIKSNEGDEAMYIALKRALIKGIGDEEEARTIIRLLRKLYIKLTRKIE,soluble
22,MIRSFADRDTELVWLREGAKRVDPRIHKVANRKLHLLDAATTLDALRVTPGNRLETLEGDRVGQYSIRVNDQWRICFRWNDSGPENVEIVDYH,not soluble
